From PMC8352894, “A KLK4 proteinase substrate capture approach to antagonize PAR1” (Scientific Reports, 2021)
Primed or numbered codes have the meaning given here. The star is where a group is joined. Biotin = O=C1N[C@H]2[C@H](CS[C@H]2CCCCC(=O)*)N1; FITC′ = not defined here

Assays:
KLK4_(S207A) = molecular target: T1, KLK4_(S207A) (human, UniProt Q9Y5K2 31-254, S207A); test: SPR; ProteOn XPR36; biotinylated PAR1 peptide immobilised on an NLC chip via NeutrAvidin-biotin (2600 RU); KLK4 variants flowed over in PBST at 30 µL/min for 818 s, dissociation 30 min (166 min for KLK4 S207A,L185D); 25 °C; empty channel subtracted; 1:1 Langmuir kinetic model; conditions: both partners purified
T1 construct: Kallikrein-related peptidase 4 (KLK4), human, UniProtKB Q9Y5K2; peptidase domain left after thermolysin removed the pro-peptide S27CSQ30 (begins at residue 31); S207 is Ser195 in chymotrypsin numbering; also called KLK_(S207); not shown: FLAG, N-terminal, cleaved
T1 sequence (Q9Y5K2 31-254 S207A): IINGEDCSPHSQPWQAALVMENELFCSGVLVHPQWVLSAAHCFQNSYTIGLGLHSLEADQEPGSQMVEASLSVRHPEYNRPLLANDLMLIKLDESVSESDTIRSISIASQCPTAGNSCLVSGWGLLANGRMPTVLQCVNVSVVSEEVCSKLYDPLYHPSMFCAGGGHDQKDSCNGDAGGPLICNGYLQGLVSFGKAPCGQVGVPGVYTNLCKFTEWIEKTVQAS

KLK4_(S207A,L185D) = molecular target: T2, KLK4_(S207A,L185D) (human, UniProt Q9Y5K2 31-254, S207A | L185D); test: as above; conditions: both partners purified
T2 construct: Kallikrein-related peptidase 4 (KLK4), human, UniProtKB Q9Y5K2; peptidase domain left after thermolysin removed the pro-peptide S27CSQ30 (begins at residue 31); L185D chosen by in-silico saturation mutagenesis; also called KLK4_(L185D,S207A); KLK_(S207,L185D); not shown: FLAG, N-terminal, cleaved
T2 sequence (Q9Y5K2 31-254 L185D/S207A): as the sequence (Q9Y5K2 31-254 S207A) above, with L155D counted along it

B1: biotinylated PAR1 peptide (biotin-31SKATNATLDPRSFLLRNPNDKYEPFWED58-FITC) (peptide)
peptide: Biotin-SKATNATLDPRSFLLRNPNDKYEPFWED-{FITC′}
notes: also called PAR1 extracellular peptide; source: synthetic peptide, bought: Peptron, Daejeon, Korea (>95%)
- Kd (KLK4_(S207A)): 1120 nM
- koff (KLK4_(S207A)): 0.000391 s⁻¹
- kon (KLK4_(S207A)): 349 M⁻¹ s⁻¹
- Kd (KLK4_(S207A,L185D)): 55.5 nM
- koff (KLK4_(S207A,L185D)): 3.17e-06 s⁻¹
- kon (KLK4_(S207A,L185D)): 57 M⁻¹ s⁻¹
